The values that follow come from patent US20210388087A1 (Chugai, published 2021).

B1: GLS3000 N30P (antibody, name in Kabat numbering, V domains shown)
VH: QVQLVESGGGVVQPGRSLRLSCAASGFTFSNAWMHWVRQAPGKGLEWVAQIKAKSNNYATYYAESVKGRFTISRDDSKNSLYLQMNSLKTEDTAVYYCRYVHYGAYYGVDAWGQGTTVTVSS
VL: DIVMTQSPLSLPVTPGEPASISCRSSQSLVHSNRPTYLHWYQQKPGQAPRLLIYKVSNRFSGVPDRFSGSGSGTDFTLKISRVEAEDVGVYYCGQGTQVPYTFGQGTKLEIK
notes: one-arm IgG as m2
B2: GLS3000 N53E (antibody, name in Kabat numbering, V domains shown)
VH: QVQLVESGGGVVQPGRSLRLSCAASGFTFSNAWMHWVRQAPGKGLEWVAQIKAKSNNYATYYAESVKGRFTISRDDSKNSLYLQMNSLKTEDTAVYYCRYVHYGAYYGVDAWGQGTTVTVSS
VL: DIVMTQSPLSLPVTPGEPASISCRSSQSLVHSNRNTYLHWYQQKPGQAPRLLIYKVSERFSGVPDRFSGSGSGTDFTLKISRVEAEDVGVYYCGQGTQVPYTFGQGTKLEIK
notes: one-arm IgG as m2
B3: GLS3000 N30R (antibody, name in Kabat numbering, V domains shown)
VH: QVQLVESGGGVVQPGRSLRLSCAASGFTFSNAWMHWVRQAPGKGLEWVAQIKAKSNNYATYYAESVKGRFTISRDDSKNSLYLQMNSLKTEDTAVYYCRYVHYGAYYGVDAWGQGTTVTVSS
VL: DIVMTQSPLSLPVTPGEPASISCRSSQSLVHSNRRTYLHWYQQKPGQAPRLLIYKVSNRFSGVPDRFSGSGSGTDFTLKISRVEAEDVGVYYCGQGTQVPYTFGQGTKLEIK
notes: one-arm IgG as m2
B4: GLS3000 N53M (antibody, name in Kabat numbering, V domains shown)
VH: QVQLVESGGGVVQPGRSLRLSCAASGFTFSNAWMHWVRQAPGKGLEWVAQIKAKSNNYATYYAESVKGRFTISRDDSKNSLYLQMNSLKTEDTAVYYCRYVHYGAYYGVDAWGQGTTVTVSS
VL: DIVMTQSPLSLPVTPGEPASISCRSSQSLVHSNRNTYLHWYQQKPGQAPRLLIYKVSMRFSGVPDRFSGSGSGTDFTLKISRVEAEDVGVYYCGQGTQVPYTFGQGTKLEIK
notes: one-arm IgG as m2
B5: GLS3000 N53P (antibody, name in Kabat numbering, V domains shown)
VH: QVQLVESGGGVVQPGRSLRLSCAASGFTFSNAWMHWVRQAPGKGLEWVAQIKAKSNNYATYYAESVKGRFTISRDDSKNSLYLQMNSLKTEDTAVYYCRYVHYGAYYGVDAWGQGTTVTVSS
VL: DIVMTQSPLSLPVTPGEPASISCRSSQSLVHSNRNTYLHWYQQKPGQAPRLLIYKVSPRFSGVPDRFSGSGSGTDFTLKISRVEAEDVGVYYCGQGTQVPYTFGQGTKLEIK
notes: one-arm IgG as m2
B6: GLS3000 N53I (antibody, name in Kabat numbering, V domains shown)
VH: QVQLVESGGGVVQPGRSLRLSCAASGFTFSNAWMHWVRQAPGKGLEWVAQIKAKSNNYATYYAESVKGRFTISRDDSKNSLYLQMNSLKTEDTAVYYCRYVHYGAYYGVDAWGQGTTVTVSS
VL: DIVMTQSPLSLPVTPGEPASISCRSSQSLVHSNRNTYLHWYQQKPGQAPRLLIYKVSIRFSGVPDRFSGSGSGTDFTLKISRVEAEDVGVYYCGQGTQVPYTFGQGTKLEIK
notes: one-arm IgG as m2
B7: GLS3000 N30V (antibody, name in Kabat numbering, V domains shown)
VH: QVQLVESGGGVVQPGRSLRLSCAASGFTFSNAWMHWVRQAPGKGLEWVAQIKAKSNNYATYYAESVKGRFTISRDDSKNSLYLQMNSLKTEDTAVYYCRYVHYGAYYGVDAWGQGTTVTVSS
VL: DIVMTQSPLSLPVTPGEPASISCRSSQSLVHSNRVTYLHWYQQKPGQAPRLLIYKVSNRFSGVPDRFSGSGSGTDFTLKISRVEAEDVGVYYCGQGTQVPYTFGQGTKLEIK
notes: one-arm IgG as m2
B8: GLS3000 N53A (antibody, name in Kabat numbering, V domains shown)
VH: QVQLVESGGGVVQPGRSLRLSCAASGFTFSNAWMHWVRQAPGKGLEWVAQIKAKSNNYATYYAESVKGRFTISRDDSKNSLYLQMNSLKTEDTAVYYCRYVHYGAYYGVDAWGQGTTVTVSS
VL: DIVMTQSPLSLPVTPGEPASISCRSSQSLVHSNRNTYLHWYQQKPGQAPRLLIYKVSARFSGVPDRFSGSGSGTDFTLKISRVEAEDVGVYYCGQGTQVPYTFGQGTKLEIK
notes: one-arm IgG as m2
B9: GLS3000 N30Q (antibody, name in Kabat numbering, V domains shown)
VH: QVQLVESGGGVVQPGRSLRLSCAASGFTFSNAWMHWVRQAPGKGLEWVAQIKAKSNNYATYYAESVKGRFTISRDDSKNSLYLQMNSLKTEDTAVYYCRYVHYGAYYGVDAWGQGTTVTVSS
VL: DIVMTQSPLSLPVTPGEPASISCRSSQSLVHSNRQTYLHWYQQKPGQAPRLLIYKVSNRFSGVPDRFSGSGSGTDFTLKISRVEAEDVGVYYCGQGTQVPYTFGQGTKLEIK
notes: one-arm IgG as m2
B10: GLS3000 N30S (antibody, name in Kabat numbering, V domains shown)
VH: QVQLVESGGGVVQPGRSLRLSCAASGFTFSNAWMHWVRQAPGKGLEWVAQIKAKSNNYATYYAESVKGRFTISRDDSKNSLYLQMNSLKTEDTAVYYCRYVHYGAYYGVDAWGQGTTVTVSS
VL: DIVMTQSPLSLPVTPGEPASISCRSSQSLVHSNRSTYLHWYQQKPGQAPRLLIYKVSNRFSGVPDRFSGSGSGTDFTLKISRVEAEDVGVYYCGQGTQVPYTFGQGTKLEIK
notes: one-arm IgG as m2
B11: GLS3000 N53L (antibody, name in Kabat numbering, V domains shown)
VH: QVQLVESGGGVVQPGRSLRLSCAASGFTFSNAWMHWVRQAPGKGLEWVAQIKAKSNNYATYYAESVKGRFTISRDDSKNSLYLQMNSLKTEDTAVYYCRYVHYGAYYGVDAWGQGTTVTVSS
VL: DIVMTQSPLSLPVTPGEPASISCRSSQSLVHSNRNTYLHWYQQKPGQAPRLLIYKVSLRFSGVPDRFSGSGSGTDFTLKISRVEAEDVGVYYCGQGTQVPYTFGQGTKLEIK
notes: one-arm IgG as m2
B12: GLS3000 N30T (antibody, name in Kabat numbering, V domains shown)
VH: QVQLVESGGGVVQPGRSLRLSCAASGFTFSNAWMHWVRQAPGKGLEWVAQIKAKSNNYATYYAESVKGRFTISRDDSKNSLYLQMNSLKTEDTAVYYCRYVHYGAYYGVDAWGQGTTVTVSS
VL: DIVMTQSPLSLPVTPGEPASISCRSSQSLVHSNRTTYLHWYQQKPGQAPRLLIYKVSNRFSGVPDRFSGSGSGTDFTLKISRVEAEDVGVYYCGQGTQVPYTFGQGTKLEIK
notes: one-arm IgG as m2
B13: GLS3000 N53F (antibody, name in Kabat numbering, V domains shown)
VH: QVQLVESGGGVVQPGRSLRLSCAASGFTFSNAWMHWVRQAPGKGLEWVAQIKAKSNNYATYYAESVKGRFTISRDDSKNSLYLQMNSLKTEDTAVYYCRYVHYGAYYGVDAWGQGTTVTVSS
VL: DIVMTQSPLSLPVTPGEPASISCRSSQSLVHSNRNTYLHWYQQKPGQAPRLLIYKVSFRFSGVPDRFSGSGSGTDFTLKISRVEAEDVGVYYCGQGTQVPYTFGQGTKLEIK
notes: one-arm IgG as m2
B14: GLS3000 N53Q (antibody, name in Kabat numbering, V domains shown)
VH: QVQLVESGGGVVQPGRSLRLSCAASGFTFSNAWMHWVRQAPGKGLEWVAQIKAKSNNYATYYAESVKGRFTISRDDSKNSLYLQMNSLKTEDTAVYYCRYVHYGAYYGVDAWGQGTTVTVSS
VL: DIVMTQSPLSLPVTPGEPASISCRSSQSLVHSNRNTYLHWYQQKPGQAPRLLIYKVSQRFSGVPDRFSGSGSGTDFTLKISRVEAEDVGVYYCGQGTQVPYTFGQGTKLEIK
notes: one-arm IgG as m2
B15: GLS3000 N53K (antibody, name in Kabat numbering, V domains shown)
VH: QVQLVESGGGVVQPGRSLRLSCAASGFTFSNAWMHWVRQAPGKGLEWVAQIKAKSNNYATYYAESVKGRFTISRDDSKNSLYLQMNSLKTEDTAVYYCRYVHYGAYYGVDAWGQGTTVTVSS
VL: DIVMTQSPLSLPVTPGEPASISCRSSQSLVHSNRNTYLHWYQQKPGQAPRLLIYKVSKRFSGVPDRFSGSGSGTDFTLKISRVEAEDVGVYYCGQGTQVPYTFGQGTKLEIK
notes: one-arm IgG as m2
B16: GLS3000 N30W (antibody, name in Kabat numbering, V domains shown)
VH: QVQLVESGGGVVQPGRSLRLSCAASGFTFSNAWMHWVRQAPGKGLEWVAQIKAKSNNYATYYAESVKGRFTISRDDSKNSLYLQMNSLKTEDTAVYYCRYVHYGAYYGVDAWGQGTTVTVSS
VL: DIVMTQSPLSLPVTPGEPASISCRSSQSLVHSNRWTYLHWYQQKPGQAPRLLIYKVSNRFSGVPDRFSGSGSGTDFTLKISRVEAEDVGVYYCGQGTQVPYTFGQGTKLEIK
notes: one-arm IgG as m2
B17: GLS3000 N53D (antibody, name in Kabat numbering, V domains shown)
VH: QVQLVESGGGVVQPGRSLRLSCAASGFTFSNAWMHWVRQAPGKGLEWVAQIKAKSNNYATYYAESVKGRFTISRDDSKNSLYLQMNSLKTEDTAVYYCRYVHYGAYYGVDAWGQGTTVTVSS
VL: DIVMTQSPLSLPVTPGEPASISCRSSQSLVHSNRNTYLHWYQQKPGQAPRLLIYKVSDRFSGVPDRFSGSGSGTDFTLKISRVEAEDVGVYYCGQGTQVPYTFGQGTKLEIK
notes: one-arm IgG as m2
B18: GLS3000 N30Y (antibody, name in Kabat numbering, V domains shown)
VH: QVQLVESGGGVVQPGRSLRLSCAASGFTFSNAWMHWVRQAPGKGLEWVAQIKAKSNNYATYYAESVKGRFTISRDDSKNSLYLQMNSLKTEDTAVYYCRYVHYGAYYGVDAWGQGTTVTVSS
VL: DIVMTQSPLSLPVTPGEPASISCRSSQSLVHSNRYTYLHWYQQKPGQAPRLLIYKVSNRFSGVPDRFSGSGSGTDFTLKISRVEAEDVGVYYCGQGTQVPYTFGQGTKLEIK
notes: one-arm IgG as m2
B19: GLS3000 N53H (antibody, name in Kabat numbering, V domains shown)
VH: QVQLVESGGGVVQPGRSLRLSCAASGFTFSNAWMHWVRQAPGKGLEWVAQIKAKSNNYATYYAESVKGRFTISRDDSKNSLYLQMNSLKTEDTAVYYCRYVHYGAYYGVDAWGQGTTVTVSS
VL: DIVMTQSPLSLPVTPGEPASISCRSSQSLVHSNRNTYLHWYQQKPGQAPRLLIYKVSHRFSGVPDRFSGSGSGTDFTLKISRVEAEDVGVYYCGQGTQVPYTFGQGTKLEIK
notes: one-arm IgG as m2
B20: GLS3000 N53G (antibody, name in Kabat numbering, V domains shown)
VH: QVQLVESGGGVVQPGRSLRLSCAASGFTFSNAWMHWVRQAPGKGLEWVAQIKAKSNNYATYYAESVKGRFTISRDDSKNSLYLQMNSLKTEDTAVYYCRYVHYGAYYGVDAWGQGTTVTVSS
VL: DIVMTQSPLSLPVTPGEPASISCRSSQSLVHSNRNTYLHWYQQKPGQAPRLLIYKVSGRFSGVPDRFSGSGSGTDFTLKISRVEAEDVGVYYCGQGTQVPYTFGQGTKLEIK
notes: one-arm IgG as m2

The target in the assay is T1, CD3 epsilon homodimer protein (UniProt P07766 23-126).
T1 construct: also called CD3 (CD3 epsilon)
T1 sequence (P07766 23-126): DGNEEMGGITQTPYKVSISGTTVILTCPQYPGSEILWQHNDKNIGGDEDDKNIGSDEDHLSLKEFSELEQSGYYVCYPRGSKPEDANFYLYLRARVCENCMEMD
Put plainly: SPR Biacore T200, CD3e homodimer on chip, vs unaltered GLS3000 antibody. (In general: SPR reads the build-up and loss of mass on a sensor chip optically.)
Description: An appropriate amount of CD3 epsilon homodimer protein was immobilized onto Sensor chip CM4 (GE Healthcare Japan Corp.) by the amine coupling method. Then, the antibody having an appropriate concentration was injected thereto as an analyte and allowed to interact with the CD3 epsilon homodimer protein on the sensor chip. Then, the sensor chip was regenerated by the injection of 10 mmol/L glycine-HCl (pH 1.5). The assay was conducted at 25 degrees C., and HBS-EP+(GE Healthcare Japan Corp.) was used as a running buffer. […] Each parameter was calculated using Biacore T200 Evaluation Software (GE Healthcare Japan Corp.).
On to B1, for which the “ratio of amounts bound (Z=Y/X)” value worked out at 0.31.

B2: the “ratio of amounts bound (Z=Y/X)” value turned out to be 0.54.

B3: the “ratio of amounts bound (Z=Y/X)” value stood at 1.86.

On to B4, for which the “ratio of amounts bound (Z=Y/X)” value came out at 0.62.

With B5, the “ratio of amounts bound (Z=Y/X)” value worked out at 0.81.

As for B6, the “ratio of amounts bound (Z=Y/X)” value came to 0.5.

Take B7: the “ratio of amounts bound (Z=Y/X)” value stood at 0.61.

Take B8: the “ratio of amounts bound (Z=Y/X)” value is 0.61.

As for B9, the “ratio of amounts bound (Z=Y/X)” value came to 0.87.

For the molecule B10, the “ratio of amounts bound (Z=Y/X)” value was determined as 0.29.

With B11, the “ratio of amounts bound (Z=Y/X)” value was 0.56.

Turning to B12, the “ratio of amounts bound (Z=Y/X)” value stood at 0.29.

In the case of B13, the “ratio of amounts bound (Z=Y/X)” value amounted to 0.69.

Take B14: the “ratio of amounts bound (Z=Y/X)” value is 0.77.

In the case of B15, the “ratio of amounts bound (Z=Y/X)” value was 1.08.

In the case of B16, the “ratio of amounts bound (Z=Y/X)” value was determined as 0.99.

As to B17, the “ratio of amounts bound (Z=Y/X)” value turned out to be 0.34.

As to B18, the “ratio of amounts bound (Z=Y/X)” value worked out at 1.04.

As to B19, the “ratio of amounts bound (Z=Y/X)” value worked out at 1.18.

Regarding B20, the “ratio of amounts bound (Z=Y/X)” value turned out to be 0.76.
